Positions count from the first letter of the chain named. Each block holds one molecule with its values, some of them ahead of it.
What was measured:
[1] = biological target: SEMG2 (human) (UniProt Q02383); experiment: ELISA; negative control
[2] = biological target: T1, SEMG1 recombinant protein (semenogelin-1) (human, UniProt P04279 24-462, limits assumed); experiment: ELISA; SEMG1 coated, antibody in 3-fold dilution series, goat anti-mouse HRP
T1 construct: also called full-length SEMG1
T1 sequence (looked up): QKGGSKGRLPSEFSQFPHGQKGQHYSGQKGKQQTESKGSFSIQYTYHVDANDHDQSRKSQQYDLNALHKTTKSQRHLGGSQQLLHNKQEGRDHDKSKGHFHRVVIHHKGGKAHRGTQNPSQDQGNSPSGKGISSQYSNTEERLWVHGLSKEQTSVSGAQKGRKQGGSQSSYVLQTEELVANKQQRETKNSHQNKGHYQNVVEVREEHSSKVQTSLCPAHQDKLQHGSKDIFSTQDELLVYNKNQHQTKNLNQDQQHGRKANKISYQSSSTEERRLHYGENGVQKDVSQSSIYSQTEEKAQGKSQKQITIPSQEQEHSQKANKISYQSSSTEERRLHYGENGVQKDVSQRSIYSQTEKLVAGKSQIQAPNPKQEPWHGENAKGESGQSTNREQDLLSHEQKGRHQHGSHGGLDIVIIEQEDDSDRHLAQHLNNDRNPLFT
Experimental: (§1) In order to identify whether the screened monoclonal antibodies with neutralizing effect can bind to SEMG1 and SEMG2 proteins, we coated SEMG2 protein diluted in carbonate buffer (Solarbio, Beijing, China) to a final concentration of 1 μg/mL on a dedicated ELISA plate (costar, ME, USA), and the binding of 1 μg/mL mouse hybridoma antibody to SEMG2 was initially tested. According to the determination outcome, the binding and binding strength between SEMG1 or SEMG2 and the purified mouse monoclonal antibody were further analyzed by ELISA experiment, and an irrelevant mouse monoclonal antibody was taken as a negative control. Specifically, a special plate for ELISA (costar, ME, USA) was used. First, different concentrations of SEMG1 or SEMG2 recombinant proteins were dissolved in 100 μL of carbonate coating buffer (Solarbio, Beijing, China) to 2 μg/mL to coat the plate, and the negative control was coated with 100 μL of coating buffer without protein. The plates were coated overnight at 4° C. […] After washing with PBST, color developing solution (Sangon, Shanghai, China) was used for color development, 100 μL per well, the plate was placed in an incubator for 5-30 minutes, and adding 50 μL of stop solution (Sangon, Shanghai, China) to stop the reaction, and then the plate was placed in a microplate reader (Thermo Fisher, MA, USA) for chromogenic reading at 450 nm.

[3] = biological target: T2, SEMG2 recombinant protein (semenogelin-2) (human, UniProt Q02383 24-582, limits assumed); experiment: ELISA; SEMG2 coated, antibody in 3-fold dilution series, goat anti-mouse HRP
T2 construct: also called SMEG2
T2 sequence (looked up): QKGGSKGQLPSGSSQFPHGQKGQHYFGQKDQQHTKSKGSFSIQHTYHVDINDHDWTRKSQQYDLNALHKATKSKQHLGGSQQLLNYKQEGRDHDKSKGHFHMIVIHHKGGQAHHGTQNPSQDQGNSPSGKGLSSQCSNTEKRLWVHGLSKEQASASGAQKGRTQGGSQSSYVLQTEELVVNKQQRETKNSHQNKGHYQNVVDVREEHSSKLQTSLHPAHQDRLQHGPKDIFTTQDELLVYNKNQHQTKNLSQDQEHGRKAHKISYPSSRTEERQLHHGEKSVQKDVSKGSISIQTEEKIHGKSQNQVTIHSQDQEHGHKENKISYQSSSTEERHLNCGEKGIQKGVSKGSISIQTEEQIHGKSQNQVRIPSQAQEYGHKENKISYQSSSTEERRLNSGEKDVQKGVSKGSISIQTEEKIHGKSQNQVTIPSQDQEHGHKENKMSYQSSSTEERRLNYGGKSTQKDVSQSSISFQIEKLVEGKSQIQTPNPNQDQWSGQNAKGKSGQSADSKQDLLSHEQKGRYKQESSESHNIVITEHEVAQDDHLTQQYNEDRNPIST
Experimental: as §1

[4] = biological target: T3, S1-26 synthetic polypeptide of SEMG1 (human); experiment: ELISA on coated peptide; antibody at 2.5 ug/mL; positive if OD ratio to blank >3
T3 construct: also called SEMG1-26
T3 peptide: KDIFSTQDELLVYNK
Experimental: ⅓ overlapping peptide sequences were designed, and a peptide library consisting of 45 peptides (GenScript, Nanjing) was synthesized. Peptide matrix was prepared by using a polypeptide-coated 96-well plate (Costar, Corning), and the selected monoclonal antibody was used as the primary antibody for ELISA binding test, and SEMG1 coating was set as a positive control, and BSA coating was set as a control. The ELISA procedure was performed routinely, as described in Example 2 above. For the coated polypeptide well with OD_{experimental group}/OD_{blank group}>3, it was determined as a positive reaction, which was the corresponding antibody-bound polypeptide sequence.

EC50 [1]: 4.24 nM
Molecule: mIgG1

EC50 [2]: 1.26 nM
EC50 [3]: 1.69 nM
binding result [4]: binds
B1: 25-E10-F8-B5 (antibody, mouse IgG1, V domains shown)
VH: QVQLQQPGAELVKPGASVKMSCKASGYTFTSYNMHWVKQTPGQGLEWIGAIYPGNGDTSYNQKFKGKATLTADKSSSTAYMQLSSLTSEDSAVYYCASAMDYWGQGTSVTVSS
VL: SIVMTQTPLSLPVSLGDQASISCRSSQSLVHSNGNTYLQWYLQKPGQSPKLLIYKVSNRFSGVPDRFSGSGSGTDFTLKISRVEAEDLGVYFCSQSKHVPRTFGGGTKLEIK
notes: Mouse hybridoma monoclonal antibody; The V regions were re-cloned with murine IgG1 and murine kappa constant regions to verify activity

EC50 [2]: 3.67 nM
EC50 [3]: 2.39 nM
binding result [4]: binds
B2: 33-B5-C1-F5 (antibody, mouse IgG1, V domains shown)
VH: B1 VH with Q1E, Q6E, P7S, G15R, T30S, V37I, K38R, G42E, N55T
VL: B1 VL with S1D, I2V, M4L, V30L, Y41F, K44R, P45S, S61Y, K97I, H98D
notes: as for B1
